Starred links: 1 amine or outer side, 2 acyl side, 3 side chain; linkers in the order of their positions; H or OH if unused. Positions of bridges follow the written chain, without caps; N, C: chain ends. Non-standard residues stand in square brackets, D forms with d. Primed or numbered codes have the meaning given here. B5(4) = 2,2-bis(4-pentenyl)glycine = 2-amino-2-(pent-4-en-1-yl)hept-6-enoic acid (stitching residue), C=CCCCC(CCCC=C)(N[*:1])C(=O)[*:2]; B5(5) = 2,2-bis(4-pentenyl)glycine, 2-amino-2-(pent-4-en-1-yl)hept-6-enoic acid (stitching residue), C=CCCCC(CCCC=C)(N[*:1])C(=O)[*:2]; PyrS(3) = (S)-1-((allyloxy)carbonyl)-3-aminopyrrolidine-3-carboxylic acid, stapling residue, C=CCOC(=O)N1CC[C@@](N[*:1])(C(=O)[*:2])C1; PyrS″ = (S)-1-((allyloxy)carbonyl)-3-aminopyrrolidine-3-carboxylic acid (stapling residue), C=CCOC(=O)N1CC[C@@](N[*:1])(C(=O)[*:2])C1; SeN = (S)-5-(((allyloxy)carbonyl)(methyl)amino)-2-amino-2-methylpentanoic acid, C=CCOC(=O)N(C)CCC[C@](C)(N[*:1])C(=O)[*:2]; PyrS = (S)-1-((allyloxy)carbonyl)-3-aminopyrrolidine-3-carboxylic acid, C=CCOC(=O)N1CC[C@@](N[*:1])(C(=O)[*:2])C1; B5(3) = 2,2-bis(4-pentenyl)glycine (stitching residue), C=CCCCC(CCCC=C)(N[*:1])C(=O)[*:2]; B5 = 2-amino-2-(pent-4-en-1-yl)hept-6-enoic acid, C=CCCCC(CCCC=C)(N[*:1])C(=O)[*:2]; Phe(3-CF3) = N[C@@H](Cc1cccc(C(F)(F)F)c1)C(=O)O; Phe(4-CF3) = N[C@@H](Cc1ccc(C(F)(F)F)cc1)C(=O)O; Phe(F5) = N[C@@H](Cc1c(F)c(F)c(F)c(F)c1F)C(=O)O; αAllylPro = C=CC[C@@]1(C(=O)O)CCCN1; hPhe = N[C@@H](CCc1ccccc1)C(=O)O; 2Pal = N[C@@H](Cc1ccccn1)C(=O)O; 4Pal = N[C@@H](Cc1ccncc1)C(=O)O; R8 = C=CCCCCCC[C@@](C)(N)C(=O)O; S8 = C=CCCCCCC[C@](C)(N)C(=O)O
T1: full-length beta-Catenin (Uniprot ID P35222) (Homo sapiens (Human), UniProt P35222 2-781)
T1 construct: The AlphaScreen assay used a Histidine (Nickel Chelate) detection kit, so a His tag is likely, but no tag is described; also called B-Catenin; bCat
T1 sequence: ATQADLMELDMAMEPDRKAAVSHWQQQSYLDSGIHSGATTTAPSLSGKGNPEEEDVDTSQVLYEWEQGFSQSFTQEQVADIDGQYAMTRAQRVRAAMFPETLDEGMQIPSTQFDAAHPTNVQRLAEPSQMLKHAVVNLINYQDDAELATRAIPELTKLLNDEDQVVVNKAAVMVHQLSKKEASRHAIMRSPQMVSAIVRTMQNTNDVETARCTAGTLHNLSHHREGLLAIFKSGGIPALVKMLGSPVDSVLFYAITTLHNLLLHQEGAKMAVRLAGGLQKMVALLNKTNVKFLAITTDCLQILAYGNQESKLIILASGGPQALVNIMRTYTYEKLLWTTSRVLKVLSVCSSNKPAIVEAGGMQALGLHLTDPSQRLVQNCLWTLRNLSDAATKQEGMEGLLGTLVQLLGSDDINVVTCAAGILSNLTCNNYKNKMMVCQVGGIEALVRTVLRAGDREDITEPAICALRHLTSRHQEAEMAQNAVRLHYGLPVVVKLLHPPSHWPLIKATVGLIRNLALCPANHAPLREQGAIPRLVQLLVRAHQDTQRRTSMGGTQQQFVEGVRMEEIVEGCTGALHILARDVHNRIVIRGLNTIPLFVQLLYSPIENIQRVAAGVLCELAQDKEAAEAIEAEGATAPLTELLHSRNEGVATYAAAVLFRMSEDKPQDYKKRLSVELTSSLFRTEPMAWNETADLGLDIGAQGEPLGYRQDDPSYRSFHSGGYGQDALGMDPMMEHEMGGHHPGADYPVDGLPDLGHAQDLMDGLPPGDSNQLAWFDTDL

T2: full-length beta-Catenin (Uniprot ID P35222) (Homo sapiens (Human), UniProt P35222 2-781)
T2 construct: also called B-Catenin; bCat
T2 sequence: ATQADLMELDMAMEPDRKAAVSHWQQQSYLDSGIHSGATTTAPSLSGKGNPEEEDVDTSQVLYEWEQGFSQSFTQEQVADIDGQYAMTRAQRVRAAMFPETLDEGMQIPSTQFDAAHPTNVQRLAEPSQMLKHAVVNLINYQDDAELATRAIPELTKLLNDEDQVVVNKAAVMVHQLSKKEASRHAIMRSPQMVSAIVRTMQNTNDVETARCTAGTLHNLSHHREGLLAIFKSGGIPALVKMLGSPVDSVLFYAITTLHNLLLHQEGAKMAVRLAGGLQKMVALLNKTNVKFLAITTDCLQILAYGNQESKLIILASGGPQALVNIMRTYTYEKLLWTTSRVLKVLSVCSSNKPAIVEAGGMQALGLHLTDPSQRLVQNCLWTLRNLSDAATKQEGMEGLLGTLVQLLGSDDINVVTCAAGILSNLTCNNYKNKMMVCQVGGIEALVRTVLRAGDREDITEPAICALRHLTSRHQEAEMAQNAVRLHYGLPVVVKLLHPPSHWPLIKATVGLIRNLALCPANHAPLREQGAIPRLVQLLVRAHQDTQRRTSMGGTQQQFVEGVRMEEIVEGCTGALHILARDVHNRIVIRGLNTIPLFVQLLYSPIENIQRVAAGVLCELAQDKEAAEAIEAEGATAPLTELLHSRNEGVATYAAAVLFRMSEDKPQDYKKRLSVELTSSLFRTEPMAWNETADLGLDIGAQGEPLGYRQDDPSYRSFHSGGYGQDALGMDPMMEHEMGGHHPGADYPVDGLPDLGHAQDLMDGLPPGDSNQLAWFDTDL


What was measured:
[1] = target: T1, full-length beta-Catenin (Uniprot ID …); assay: AlphaScreen competition: full-length beta-catenin + biotin-TCF4(10-53) probe, peptide titrated
Experimental: (§1) Equal volume of the titrated peptide was added to the plate and incubated for 15 minutes at 20° C. Then 4 uL of donor and 4 uL acceptor beads at 10 ug/mL were added to the plate, for a 16 uL reaction pool and protected from light for 60 minutes at 20° C. prior to read. Reads were performed on a CLARIOstar plate reader (BMG Labtech) in duplicate, and data were fitted to a 1:1 binding model with hill slope using an in-house script. All provided concentrations are final concentrations.

[2] = target: T2, full-length beta-Catenin (Uniprot ID …); assay: Alphascreen competition; biotin-TCF4(10-53) probe with full-length beta-catenin
Experimental: as §1

EC50 [1] [µM] | EC50 [2] [nM] | Binder
4.91 |  | Ac-[αAllylPro]DA[B5(5)]DDAA[Phe(4-CF3)]V[S8]FWQ-NH2 (staple 1-4, 4-11; not fully specified; printed as Ac-PL3-Asp-Ala-B5-Asp-Asp-Ala-Ala-4F3MeF-Val-S8-Phe-Trp-Gln-NH2, Stapled peptide composition; also called Ac-PL3-Asp-Ala-B5-Asp-Asp-Ala-Ala-4F3MeF-Val-S8-Phe-Trp-Gln-NH2) [I-242]
7.21 |  | Ac-[αAllylPro]DA[B5][4Pal]EAAFV[S8]FWQ-NH2 (staple 1-4, 4-11, Stapled (stitched) peptide composition; also called Ac-PL3-Asp-Ala-B5-4pyrA-Glu-Ala-Ala-Phe-Val-S8-Phe-Trp-Gln-NH2) [I-214]
0.267 |  | Ac-[αAllylPro]DA[B5(3)]DDAA[Phe(3-CF3)]V[S8]FWQ-NH2 (staple 1-4, 4-11, Stapled peptide composition; also called Ac-PL3-Asp-Ala-B5-Asp-Asp-Ala-Ala-3F3MeF-Val-S8-Phe-Trp-Gln-NH2) [I-238]
 | 797 | Ac-[αAllylPro]DA[B5(4)]DEAAFV[SeN]FWQ-NH2 (staple 1-4, 4-11, Stitched (two-staple) peptide composition) [I-130]
3.47 |  | Ac-[αAllylPro]DA[B5(5)]DDAA[Phe(4-CF3)]V[S8]FWQ-NH2 (staple 1-4, 4-11; not fully specified; printed as Ac-PL3-Asp-Ala-B5-Asp-Asp-Ala-Ala-4F3MeF-Val-S8-Phe-Trp-Gln-NH2, Stapled peptide composition; also called Ac-PL3-Asp-Ala-B5-Asp-Asp-Ala-Ala-4F3MeF-Val-S8-Phe-Trp-Gln-NH2) [I-240]
0.384 |  | Ac-[αAllylPro]DA[B5(3)]DDAA[Phe(3-CF3)]V[S8]FWQ-NH2 (staple 1-4, 4-11, Stapled peptide composition; also called Ac-PL3-Asp-Ala-B5-Asp-Asp-Ala-Ala-3F3MeF-Val-S8-Phe-Trp-Gln-NH2) [I-237]
5.81 |  | Ac-[αAllylPro]DA[B5(4)][2Pal]EAAFV[S8]FWQ-NH2 (staple 1-4, 4-11; also: separate staple isomer composition, Stapled peptide composition; also called Ac-PL3-Asp-Ala-B5-2pyrA-Glu-Ala-Ala-Phe-Val-S8-Phe-Trp-Gln-NH2) [I-229]
 | 4360 | Ac-FDA[R8]DDAA[hPhe]V[PyrS(3)]FWQ-NH2 (staple 4-11, Stapled peptide composition) [I-118]
0.384 |  | Ac-[αAllylPro]DA[B5(3)]DDAA[Phe(3-CF3)]V[S8]FWQ-NH2 (staple 1-4, 4-11, Stapled peptide composition; also called Ac-PL3-Asp-Ala-B5-Asp-Asp-Ala-Ala-3F3MeF-Val-S8-Phe-Trp-Gln-NH2) [I-236]
2.96 |  | Ac-[αAllylPro]DA[B5(5)]D[Phe(3-CF3)]AAFV[S8]FWQ-NH2 (staple 1-4, 4-11, Stapled peptide composition; also called Ac-PL3-Asp-Ala-B5-Asp-3F3MeF-Ala-Ala-Phe-Val-S8-Phe-Trp-Gln-NH2) [I-244]
2.96 |  | Ac-[αAllylPro]DA[B5(4)]D[Phe(3-CF3)]AAFV[S8]FWQ-NH2 (staple 1-4, 4-11, Stapled peptide composition; also called Ac-PL3-Asp-Ala-B5-Asp-3F3MeF-Ala-Ala-Phe-Val-S8-Phe-Trp-Gln-NH2) [I-245]
5.9 |  | Ac-[αAllylPro]DA[B5(3)]DWAAFV[S8]FWQ-NH2 (staple 1-4, 4-11, Stapled peptide composition; also called Ac-PL3-Asp-Ala-B5-Asp-Trp-Ala-Ala-Phe-Val-S8-Phe-Trp-Gln-NH2) [I-233]
3.97 |  | Ac-[αAllylPro]DA[B5(4)]D[Phe(4-CF3)]AAFV[S8]FWQ-NH2 (staple 1-4, 4-11, Stapled peptide composition; also called Ac-PL3-Asp-Ala-B5-Asp-4F3MeF-Ala-Ala-Phe-Val-S8-Phe-Trp-Gln-NH2) [I-246]
3.97 |  | Ac-[αAllylPro]DA[B5(4)]D[Phe(4-CF3)]AAFV[S8]FWQ-NH2 (staple 1-4, 4-11, Stapled peptide composition; also called Ac-PL3-Asp-Ala-B5-Asp-4F3MeF-Ala-Ala-Phe-Val-S8-Phe-Trp-Gln-NH2) [I-247]
6.58 |  | Ac-FDA[R8]DDAAFT[PyrS]FWQ-NH2 (staple 4-11, Stapled peptide composition; also called Ac-Phe-Asp-Ala-R8-Asp-Asp-Ala-Ala-Phe-Thr-PyrS-Phe-Trp-Gln-NH2) [I-221]
5.91 |  | Ac-FDA[R8]DDAAFV[PyrS][Phe(F5)]WQ-NH2 (staple 4-11, Stapled peptide composition; also called Ac-Phe-Asp-Ala-R8-Asp-Asp-Ala-Ala-Phe-Val-PyrS-Pff-Trp-Gln-NH2) [I-228]
5.91 |  | Ac-FDA[R8]DDAAFV[PyrS″][Phe(F5)]WQ-NH2 (staple 4-11, Stapled peptide composition; also called Ac-Phe-Asp-Ala-R8-Asp-Asp-Ala-Ala-Phe-Val-PyrS-Pff-Trp-Gln-NH2) [I-227]
7.63 |  | Ac-FDA[R8]DDAAFV[PyrS][Phe(F5)]WQ-NH2 (staple 4-11, Stapled peptide composition; also called Ac-Phe-Asp-Ala-R8-Asp-Asp-Ala-Ala-Phe-Val-PyrS-Pff-Trp-Gln-NH2) [I-225]
7.63 |  | Ac-FDA[R8]DDAAFV[PyrS″][Phe(F5)]WQ-NH2 (staple 4-11, Stapled peptide composition; also called Ac-Phe-Asp-Ala-R8-Asp-Asp-Ala-Ala-Phe-Val-PyrS-Pff-Trp-Gln-NH2) [I-226]

Source: patent US20240116985A1 (published 2024)
